Test results: PMC3494747

Columns and labels:
[1] = biological target: H2-D^b class I heavy chain, endogenous on RMA-S cells (mouse (endogenous in RMA-S)); assay: peptide-induced MHC class I surface stabilization assay
[2] = biological target: DLA-88*50801 heavy chain with a FLAG epitope tag at the carboxyl terminus, on BARC3 cells (canine); assay: flow cytometry on cells
[3] = biological target: DLA-88*50801 heavy chain with a FLAG epitope tag at the carboxyl terminus, on BARC3 cells (canine); assay: dissociation of peptide-MHC complexes from the cell surface under brefeldin A

dissociation half-life (t1/2), first experiment [3]	Molecule	also measured
	NP396 peptide (LCMV-derived immunodominant peptide)	MFI of anti-H2-D^b staining of peptide-loaded RMA-S cells [1]: 217 MFI
	murine β2-microglobulin (from UniProt P01887 21-119) (natural protein)	MFI of anti-murine β2M staining (K11-pulsed BARC3 cells) [2]: 281 MFI
1.9 h	KLFSGELTK [K9 peptide]	
6 h	RFLDKDGFIDK [K11 peptide]	
